From US20240299449A1 (University of California, published 2024)

T1: recombinant fusion protein comprised of the C-terminal extracellular domain of CD72 (aa 117-359) fused to a … (human, UniProt P21854 117-359, biotinylated (on the Fc domain; site not stated))
T1 construct: range 117-359; Expressed in mammalian cells; CD72 is a type II protein, so the Fc may be N-terminal; also called CD72-Fc; CD72-ECD-Fc; not shown: human Fc domain
T1 sequence (looked up): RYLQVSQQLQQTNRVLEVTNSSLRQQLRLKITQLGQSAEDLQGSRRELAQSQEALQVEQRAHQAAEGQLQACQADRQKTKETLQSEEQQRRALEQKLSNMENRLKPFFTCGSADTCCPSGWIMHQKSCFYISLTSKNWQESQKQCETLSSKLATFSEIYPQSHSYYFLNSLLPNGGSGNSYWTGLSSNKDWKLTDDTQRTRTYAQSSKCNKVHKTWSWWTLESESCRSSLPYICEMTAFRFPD

T2: recombinant fusion protein comprised of the C-terminal extracellular domain of CD72 (aa 117-359) fused to a … (human, UniProt P21854 117-359, biotinylated (on the Fc domain; site not stated))
T2 chain: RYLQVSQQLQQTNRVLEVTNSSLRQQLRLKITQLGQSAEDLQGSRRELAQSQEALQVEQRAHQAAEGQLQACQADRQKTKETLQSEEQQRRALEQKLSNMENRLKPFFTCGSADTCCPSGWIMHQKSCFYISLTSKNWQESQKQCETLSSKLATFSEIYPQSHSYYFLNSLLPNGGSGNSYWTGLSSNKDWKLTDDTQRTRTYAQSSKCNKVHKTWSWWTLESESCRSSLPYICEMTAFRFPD


Legend:
[1] = molecular target: T1, recombinant fusion protein comprised of …; assay: on-yeast affinity measurement, flow cytometry, titration of CD72-Fc
Description: FIG. 4a-e: Isolation of high-affinity CD72 nanobodies with yeast display (a) Schematic of workflow for in vitro anti-CD72 nanobody selection using yeast display. (b) Structure models of the recombinant Fc-fusion proteins used to perform yeast display selections. The Fc protein on the left was used to negatively select potential off-target nanobodies while the CD72-Fc protein (CD72 extracellular domain fused to a human Fc domain) was used to perform positive selection steps to isolate CD72-specific nanobodies (c) Schematic displaying the nanobody yeast display selection strategy for each MACS and FACS selection round to enrich for CD72-specific nanobody binders. Two rounds of MACS followed by four rounds of FACS with decreasing concentration of CD72 antigen produced high affinity anti-CD72 nanobodies. (d) On-yeast binding of recombinant CD72-Fc fusion protein for CD72-selected nanobodies Nb.B5 (nanobody sequence SEQ ID NO:2) and Nb.C2 (nanobody sequence SEQ ID NO:1) expressed on yeast to determine estimated binding affinities. Kd determined by curve fitting using non-linear least squares regression. (e) Flow cytometry plots of yeast clone Nb.C2 binding to 10 nM CD72-ECD-Fc protein (left) or 10 nM Fc protein (right). […]

[2] = molecular target: T2, recombinant fusion protein comprised of …; assay: on-yeast binding (yeast display titration)

binding result [1] | Kd [2] [nM] | Binder
binds | 1 | Nb.B5 (VHH) VHH: QVQLQESGGGLVQAGGSLRLSCAASGTIFPVDYMGWYRQAPGKERELVAGINYGSNTYYADSVKGRFTISRDNAKNTVYLQMNSLKPEDTAVYYCAAWQPEGYAVDFYHPYWGQGTQVTVSS
binds | 1.5 | Nb.C2 (VHH, display was detected with anti-HA-FITC; also called yeast clone Nb.C2) VHH: QVQLQESGGGLVQAGGSLRLSCAASGTIFDWYSMGWYRQAPGKERELVAGIDTGANTYYADSVKGRFTISRDNAKNTVYLQMNSLKPEDTAVYYCAAHDDGDPWHVYWGQGTQVTVSS
